Measurements as given in US20190077860A1 (EISAI R AND D MANAGEMENT, published 2019).

Assays:
[1] = target: T1, human EphA4 extracellular region-SEAP-His protein (human, UniProt P54764 20-547); assay: SPR, Ab captured
T1 construct: also called hEphA4-SEAP-His
How it was run: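 Antibodies captured (~30–60 RU) on a protein A chip, or for antibody A on immobilized rat anti-mouse IgG1, in HBS-EP. Human EphA4 extracellular region-SEAP-His at 0.6–50 nM injected in ascending order without regeneration, with 120 s association and 900 s dissociation. KD=kd/ka from 1:1 binding model fits.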

[2] = target: T1, human EphA4 extracellular …; assay: competition ELISA, competitor human Ephrin A5-Fc
How it was run: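 Anti-alkaline phosphatase-coated plates captured EphA4-SEAP-His (10 nM final), then antibody (0–3000 nM serial dilutions) and biotinylated Ephrin A5-Fc (0.7 nM final) were co-added for 1 h at room temperature. Bound ligand detected with HRP-streptavidin and TMBZ, stopped with 1N H₂SO₄, A450 read.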

[3] = target: T1, human EphA4 extracellular …; assay: SPR (Biacore T200), human EphA4 extracellular region-SEAP-His captured on an anti-His antibody CM5 chip, antibody as analyte at 0.6-50 nM, 1:1 fit (run alongside F(ab')2)
Protocol: Next, the binding affinity of antibody A-Fab and antibody A-F(ab′)₂ for mouse and human EphA4 was determined by surface plasmon resonance (SPR) using Biacore T200 (GE Healthcare). Antibody A obtained in Example 1 was used as a control for the comparison of each fragment. First, an anti-His tag antibody was immobilized on sensor chip CM5. The immobilization of the anti-His tag antibody on sensor chip CM5 was performed by the amine coupling method using N-hydroxysuccinimide (NHS) and N-ethyl-N′-(3-dimethylaminopropyl)carbodiimide hydrochloride (EDC). Ethanolamine was used in blocking (the sensor chip and the reagents for immobilization were all manufactured by GE Healthcare). The antibody was diluted with a buffer solution for immobilization (10 mM sodium acetate, pH 4.5) into 3 μg/mL and immobilized on the sensor chip according to the protocol attached to Biacore T200.
Mouse or human EphA4 extracellular region-SEAP-His protein was diluted with a running buffer solution HBS-EP (GE Healthcare, BR-1001-88), injected onto a flow cell for 120 seconds, and captured (amount of the protein captured: approximately 10 to 20 RU). Subsequently, antibody A (50, 16.7, 5.6, 1.9, 0.6, and 0 nM), antibody A-Fab (500, 166.7, 55.6, 18.5, 6.2, and 0 nM), or antibody A-F(ab′)₂ (50, 16.7, 5.6, 1.9, 0.6, and 0 nM) serially diluted using HBS-EP was added to the sensor chip for 120 seconds. Binding reaction curves were sequentially observed at the time of the addition (association phase, for 120 sec) and after the completion of the addition (dissociation phase, for 900 sec). After the completion of each observation, the sensor chip was regenerated by the addition of 3 M MgCl₂ (Wako Pure Chemical Industries) (for 30 sec). The obtained binding reaction curves were subjected to fitting analysis with 1:1 binding models using software BIA evaluation attached to the system to calculate the binding affinity (KD=kd/ka) for mouse and human EphA4.

T1 sequence (P54764 20-547): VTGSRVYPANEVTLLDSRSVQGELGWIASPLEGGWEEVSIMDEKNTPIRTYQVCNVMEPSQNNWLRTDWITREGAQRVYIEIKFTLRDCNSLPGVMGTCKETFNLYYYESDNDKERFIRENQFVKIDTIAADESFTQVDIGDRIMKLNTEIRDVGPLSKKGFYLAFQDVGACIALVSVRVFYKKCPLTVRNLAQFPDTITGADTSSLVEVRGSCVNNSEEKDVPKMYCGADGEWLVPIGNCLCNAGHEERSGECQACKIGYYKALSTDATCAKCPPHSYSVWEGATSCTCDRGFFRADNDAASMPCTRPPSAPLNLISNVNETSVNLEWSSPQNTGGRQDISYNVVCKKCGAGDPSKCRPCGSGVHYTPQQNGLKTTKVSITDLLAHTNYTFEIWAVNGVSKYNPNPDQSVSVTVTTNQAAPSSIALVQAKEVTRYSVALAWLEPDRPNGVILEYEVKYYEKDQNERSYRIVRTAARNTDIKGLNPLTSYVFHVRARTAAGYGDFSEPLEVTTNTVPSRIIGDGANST

Kd [1] [nM]	koff [1] [s⁻¹]	kon [1] [M⁻¹ s⁻¹]	IC50 [2] [nM]	Kd [3] [nM]	koff [3] [s⁻¹]	kon [3] [M⁻¹ s⁻¹]	Binder
1	0.00031	300000	3.1	–	–	–	humanized antibody No. 95 (antibody, human IgG1, kappa, human Ig kappa; also called L2-4/HK1) heavy: QVQLVQSGSELKKPGASVKVSCKASGYTFTDYSMHWVRQAPGQGLEWMGWINTETGEPTYADDFKGRFVFSLDTSVSTAYLQISSLKAEDTAVYYCARIPLYYYGSRYWYFDVWGQGTTVTVSSASTKGPSVFPLAPSSKSTSGGTAALGCLVKDYFPEPVTVSWNSGALTSGVHTFPAVLQSSGLYSLSSVVTVPSSSLGTQTYICNVNHKPSNTKVDKRVEPKSCDKTHTCPPCPAPPAAAPSVFLFPPKPKDTLMISRTPEVTCVVVDVSHEDPEVQFNWYVDGVEVHNAKTKPREEQFNSTFRVVSVLTVVHQDWLNGKEYKCKVSNKGLPAPIEKTISKTKGQPREPQVYTLPPSREEMTKNQVSLTCLVKGFYPSDIAVEWESNGQPENNYKTTPPMLDSDGSFFLYSKLTVDKSRWQQGNVFSCSVMHEALHNHYTQKSLSLSPG light: EIVMTQSPATLSVSPGERATLSCRASENIYRNLAWYQQKPGQSPRLLIYAATNLADGIPARFSGSGSGTEYTLTISSLQSEDFAVYYCQHFWGTPWTFGQGTKVEIKRTVAAPSVFIFPPSDEQLKSGTASVVCLLNNFYPREAKVQWKVDNALQSGNSQESVTEQDSKDSTYSLSSTLTLSKADYEKHKVYACEVTHQGLSSPVTKSFNRGEC
1.1	0.00031	270000	3.7	–	–	–	humanized antibody No. 96 (antibody, human IgG1, kappa, human Ig kappa; also called L2-4/HK2) heavy: QVQLVQSGSELKKPGASVKVSCKASGYTFTDYSMHWVRQAPGQGLKWMGWINTETGEPTYADDFKGRFVFSLDTSVSTAYLQISSLKAEDTAVYYCARIPLYYYGSRYWYFDVWGQGTTVTVSSASTKGPSVFPLAPSSKSTSGGTAALGCLVKDYFPEPVTVSWNSGALTSGVHTFPAVLQSSGLYSLSSVVTVPSSSLGTQTYICNVNHKPSNTKVDKRVEPKSCDKTHTCPPCPAPPAAAPSVFLFPPKPKDTLMISRTPEVTCVVVDVSHEDPEVQFNWYVDGVEVHNAKTKPREEQFNSTFRVVSVLTVVHQDWLNGKEYKCKVSNKGLPAPIEKTISKTKGQPREPQVYTLPPSREEMTKNQVSLTCLVKGFYPSDIAVEWESNGQPENNYKTTPPMLDSDGSFFLYSKLTVDKSRWQQGNVFSCSVMHEALHNHYTQKSLSLSPG light: EIVMTQSPATLSVSPGERATLSCRASENIYRNLAWYQQKPGQSPRLLIYAATNLADGIPARFSGSGSGTEYTLTISSLQSEDFAVYYCQHFWGTPWTFGQGTKVEIKRTVAAPSVFIFPPSDEQLKSGTASVVCLLNNFYPREAKVQWKVDNALQSGNSQESVTEQDSKDSTYSLSSTLTLSKADYEKHKVYACEVTHQGLSSPVTKSFNRGEC
0.6	0.00025	420000	–	0.0399	0.000236	5.91e+06	antibody A (antibody, mouse IgG1, kappa, V domains shown, mouse IgG1 heavy chain, kappa light chain; purified from hybridoma supernatant; also called anti-EphA4 monoclonal antibody; antibody A-IgG) VH: QIQLVQSGPELKKPGETVKISCKASGYTFTDYSMHWVKQAPGKGLKWMGWINTETGEPTYADDFKGRFAFSLETSASTAYLQINNLKNEDTATYFCARIPLYYYGSRYWYFDVWGAGTTVTVSS VL: DIQMTQSPASLSVSVGETVTITCRASENIYRNLAWYQQKQGKSPQLLVYAATNLADGVPSRFSGSGSGTQYSLKINSLQSEDFGSYYCQHFWGTPWTFGGGTKLEIKR
